The labels stand for the following.
B1: Contactin-associated protein-like 2 (Homo sapiens), Q9UHC6-1 (parent)
chain: MQAAPRAGCGAALLLWIVSSCLCRAWTAPSTSQKCDEPLVSGLPHVAFSSSSSISGSYSPGYAKINKRGGAGGWSPSDSDHYQWLQVDFGNRKQISAIATQGRYSSSDWVTQYRMLYSDTGRNWKPYHQDGNIWAFPGNINSDGVVRHELQHPIIARYVRIVPLDWNGEGRIGLRIEVYGCSYWADVINFDGHVVLPYRFRNKKMKTLKDVIALNFKTSESEGVILHGEGQQGDYITLELKKAKLVLSLNLGSNQLGPIYGHTSVMTGSLLDDHHWHSVVIERQGRSINLTLDRSMQHFRTNGEFDYLDLDYEITFGGIPFSGKPSSSSRKNFKGCMESINYNGVNITDLARRKKLEPSNVGNLSFSCVEPYTVPVFFNATSYLEVPGRLNQDLFSVSFQFRTWNPNGLLVFSHFADNLGNVEIDLTESKVGVHINITQTKMSQIDISSGSGLNDGQWHEVRFLAKENFAILTIDGDEASAVRTNSPLQVKTGEKYFFGGFLNQMNNSSHSVLQPSFQGCMQLIQVDDQLVNLYEVAQRKPGSFANVSIDMCAIIDRCVPNHCEHGGKCSQTWDSFKCTCDETGYSGATCHNSIYEPSCEAYKHLGQTSNYYWIDPDGSGPLGPLKVYCNMTEDKVWTIVSHDLQMQTPVVGYNPEKYSVTQLVYSASMDQISAITDSAEYCEQYVSYFCKMSRLLNTPDGSPYTWWVGKANEKHYYWGGSGPGIQKCACGIERNCTDPKYYCNCDADYKQWRKDAGFLSYKDHLPVSQVVVGDTDRQGSEAKLSVGPLRCQGDRNYWNAASFPNPSSYLHFSTFQGETSADISFYFKTLTPWGVFLENMGKEDFIKLELKSATEVSFSFDVGNGPVEIVVRSPTPLNDDQWHRVTAERNVKQASLQVDRLPQQIRKAPTEGHTRLELYSQLFVGGAGGQQGFLGCIRSLRMNGVTLDLEERAKVTSGFISGCSGHCTSYGTNCENGGKCLERYHGYSCDCSNTAYDGTFCNKDVGAFFEEGMWLRYNFQAPATNARDSSSRVDNAPDQQNSHPDLAQEEIRFSFSTTKAPCILLYISSFTTDFLAVLVKPTGSLQIRYNLGGTREPYNIDVDHRNMANGQPHSVNITRHEKTIFLKLDHYPSVSYHLPSSSDTLFNSPKSLFLGKVIETGKIDQEIHKYNTPGFTGCLSRVQFNQIAPLKAALRQTNASAHVHIQGELVESNCGASPLTLSPMSSATDPWHLDHLDSASADFPYNPGQGQAIRNGVNRNSAIIGGVIAVVIFTILCTLVFLIRYMFRHKGTYHTNEAKGAESAESADAAIMNNDPNFTETIDESKKEWLI
partner: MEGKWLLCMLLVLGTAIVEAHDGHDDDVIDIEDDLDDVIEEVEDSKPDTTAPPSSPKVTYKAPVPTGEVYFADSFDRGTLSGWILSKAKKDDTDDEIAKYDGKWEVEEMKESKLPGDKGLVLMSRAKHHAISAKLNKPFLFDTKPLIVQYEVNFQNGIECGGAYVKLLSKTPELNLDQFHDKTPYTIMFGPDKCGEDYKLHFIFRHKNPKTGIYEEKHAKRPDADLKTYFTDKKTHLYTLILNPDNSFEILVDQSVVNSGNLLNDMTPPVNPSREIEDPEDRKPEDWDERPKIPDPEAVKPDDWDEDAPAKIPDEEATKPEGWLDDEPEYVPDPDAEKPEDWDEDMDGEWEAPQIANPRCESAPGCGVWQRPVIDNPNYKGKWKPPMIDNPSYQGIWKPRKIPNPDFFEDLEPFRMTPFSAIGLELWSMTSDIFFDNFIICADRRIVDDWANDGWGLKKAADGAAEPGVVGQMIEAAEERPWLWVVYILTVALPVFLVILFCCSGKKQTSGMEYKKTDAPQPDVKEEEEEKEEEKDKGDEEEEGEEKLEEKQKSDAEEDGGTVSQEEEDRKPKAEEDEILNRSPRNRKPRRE

Experimental findings from IntAct's records for PubMed 22872700 are described below.

Variants of B1 are the subject of this assay. Conditions: with calx_human CANX.
In the case of D1129H, the “effect of a mutation on the interaction” value was “increasing interaction strength”.
